B1: TR2: Testicular Orphan Nuclear Receptor 2 (NR2C1), cDNA driver (protein, UniProt P13056 1-603, looked up)
Nuclear receptor subfamily 2 …: MATIEEIAHQIIEQQMGEIVTEQQTGQKIQIVTALDHNTQGKQFILTNHDGSTPSKVILARQDSTPGKVFLTTPDAAGVNQLFFTTPDLSAQHLQLLTDNSPDQGPNKVFDLCVVCGDKASGRHYGAVTCEGCKGFFKRSIRKNLVYSCRGSKDCIINKHHRNRCQYCRLQRCIAFGMKQDSVQCERKPIEVSREKSSNCAASTEKIYIRKDLRSPLTATPTFVTDSESTRSTGLLDSGMFMNIHPSGVKTESAVLMTSDKAESCQGDLSTLANVVTSLANLGKTKDLSQNSNEMSMIESLSNDDTSLCEFQEMQTNGDVSRAFDTLAKALNPGESTACQSSVAGMEGSVHLITGDSSINYTEKEGPLLSDSHVAFRLTMPSPMPEYLNVHYIGESASRLLFLSMHWALSIPSFQALGQENSISLVKAYWNELFTLGLAQCWQVMNVATILATFVNCLHNSLQQDKMSTERRKLLMEHIFKLQEFCNSMVKLCIDGYEYAYLKAIVLFSPDHPSLENMEQIEKFQEKAYVEFQDYITKTYPDDTYRLSRLLLRLPALRLMNATITEELFFKGLIGNIRIDSVIPHILKMEPADYNSQIIGHSI
B2: HNF4g: Hepatocyte Nuclear Factor γ (NR2A2), cDNA driver (protein, UniProt Q14541 1-408, looked up)
Hepatocyte nuclear factor …: MNTTDNGVNCLCAICGDRATGKHYGASSCDGCKGFFRRSIRKSHVYSCRFSRQCVVDKDKRNQCRYCRLRKCFRAGMKKEAVQNERDRISTRRSTFDGSNIPSINTLAQAEVRSRQISVSSPGSSTDINVKKIASIGDVCESMKQQLLVLVEWAKYIPAFCELPLDDQVALLRAHAGEHLLLGATKRSMMYKDILLLGNNYVIHRNSCEVEISRVANRVLDELVRPFQEIQIDDNEYACLKAIVFFDPDAKGLSDPVKIKNMRFQVQIGLEDYINDRQYDSRGRFGELLLLLPTLQSITWQMIEQIQFVKLFGMVKIDNLLQEMLLGGASNDGSHLHHPMHPHLSQDPLTGQTILLGPMSTLVHADQISTPETPLPSPPQGSGQEQYKIAANQASVISHQHLSKQKQL
B3: RORb: RAR-related Orphan Receptor β (NR1F2), cDNA driver (protein, UniProt Q92753 1-470, looked up)
Nuclear receptor ROR-beta: MCENQLKTKADATAQIEVIPCKICGDKSSGIHYGVITCEGCKGFFRRSQQNNASYSCPRQRNCLIDRTNRNRCQHCRLQKCLALGMSRDAVKFGRMSKKQRDSLYAEVQKHQQRLQEQRQQQSGEAEALARVYSSSISNGLSNLNNETSGTYANGHVIDLPKSEGYYNVDSGQPSPDQSGLDMTGIKQIKQEPIYDLTSVPNLFTYSSFNNGQLAPGITMTEIDRIAQNIIKSHLETCQYTMEELHQLAWQTHTYEEIKAYQSKSREALWQQCAIQITHAIQYVVEFAKRITGFMELCQNDQILLLKSGCLEVVLVRMCRAFNPLNNTVLFEGKYGGMQMFKALGSDDLVNEAFDFAKNLCSLQLTEEEIALFSSAVLISPDRAWLIEPRKVQKLQEKIYFALQHVIQKNHLDDETLAKLIAKIPTITAVCNLHGEKLQVFKQSHPEIVNTLFPPLYKELFNPDCATGCK

Key:
[1] = system: hG6PD promoter; assay: NHR-promoter luciferase screen, hG6PD promoter; assay type: cell-based, human; conditions: for Luc. act., normalized to lacZ / Normalized Luc. act., normalized to control: G6PD promoter reporter, co-transfected HR, without or with its ligand; for Normalized Luc. act., normalized to control: relative to control; for luciferase activity normalized to lacZ activity and to a control, hG6PD: hG6PD promoter-luciferase, CV-1 cells, NHR +/- ligand, control = 1.00
Outline: (§1)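 CV-1 cells were co-transfected with 50 ng NHR (homodimer or NHR/RXR heterodimer), 100 ng promoter-luciferase construct and 50 ng LacZ. Luciferase was normalized to LacZ and to a no-NHR/no-ligand control.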

[2] = system: RevErba promoter; assay: NHR-promoter luciferase screen, RevErba (RVRa) promoter; assay type: cell-based; set-up: key to mRevErba promoter reporter activity / Normalized Luc. act., normalized to control: luciferase activity normalized to lacZ and to control (no NHR/ligand); conditions: for Luc. act., normalized to lacZ / Normalized Luc. act., normalized to control / normalized Luc. act. on a logarithmic scale (column without head, Table 33): RVRa promoter; for Luc. act., normalized to lacZ / Normalized Luc. act., normalized to control: HR component without or with ligand; for normalized Luc. act. on a logarithmic scale (column without head, Table 33): log10 of activity normalized to control; for mRevErba promoter reporter activity: transcription factor +/- ligand, control = 1.00
Outline: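 CV-1 cells co-transfected with NHR (pcDNA3.1, C-terminal V5H6 tag) as homodimer or RXR heterodimer, RevErbα promoter–luciferase reporter and LacZ transfection control; ligand added where applicable. Luciferase normalized to LacZ and to no-NHR/no-ligand control.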

[3] = system: hPOMC promoter; assay: NHR-promoter luciferase screen, hPOMC promoter; assay type: cell-based, human; conditions: for Luc. act., normalized to lacZ / Normalized Luc. act., normalized to control: hPOMC promoter, HR/ligand component; for hPOMC promoter reporter activity: transcription factor +/- ligand, control = 1.00
Outline: as §1

[4] = system: mPOMC promoter; assay: NHR-promoter luciferase screen, mPOMC promoter; assay type: cell-based, mouse; conditions: for Results of assays of transcription factor (+/- ligand) with mPOMC: Table 6d, luciferase activity relative to control (control = 1.00); for Luc. act., normalized to lacZ / Normalized Luc. act., normalized to control: mPOMC promoter, HR component with or without ligand; for Normalized Luc. act., normalized to control: relative to control
Outline: as §1

[5] = system: hPPARg1 promoter; assay: NHR-promoter luciferase screen, hPPARg1 promoter; assay type: cell-based, human; conditions: for Luc. act., normalized to lacZ / Normalized Luc. act., normalized to control: PPARG1 promoter, hormone receptor with or without its ligand; for Normalized Luc. act., normalized to control: relative to control; for Results of assays of transcription factor (+/- ligand) with hPPARg1: Table 6d, luciferase activity relative to control (control = 1.00)
Outline: as §1

Row | Molecule | Luc. act., normalized to lacZ [1] | Normalized Luc. act., normalized to control [1] | luciferase activity normalized to lacZ activity and to a control, hG6PD [1] | Luc. act., normalized to lacZ [2] | Normalized Luc. act., normalized to control [2] | normalized Luc. act. on a logarithmic scale (column without head, Table 33) [2] | mRevErba promoter reporter activity [2] | Luc. act., normalized to lacZ [3] | Normalized Luc. act., normalized to control [3] | hPOMC promoter reporter activity [3] | Results of assays of transcription factor (+/- ligand) with mPOMC [4] | Luc. act., normalized to lacZ [4] | Normalized Luc. act., normalized to control [4] | Luc. act., normalized to lacZ [5] | Normalized Luc. act., normalized to control [5] | Results of assays of transcription factor (+/- ligand) with hPPARg1 [5]
1 | B1 | 45.5 | 1.2 | 1.22 | 52.3 | 1.9 | 0.27 | 1.87 | 15.7 | 3.6 | 3.65 | 1.92 | 132.1 | 1.9 | 45.5 | 0.7 | 0.66
2 | B2 | 42.1 | 1.1 | 1.13 | 28.15 | 1.0 | 0.00 | 1.01 | 5.3 | 1.2 | 1.23 | 1.07 | 73.9 | 1.1 | 42.1 | 0.6 | 0.61
3 | B3 | 51.1 | 1.4 | 1.37 | 29.93 | 1.1 | 0.03 | 1.07 | 2.2 | 0.5 | 0.52 | 1.29 | 88.7 | 1.3 | 51.1 | 0.7 | 0.74

— patent US20110263454A1, “Methods of Identifying Functional Characteristics of Promoters, Transcription Modifying Proteins and Transcription Modulating Agents” (Salk Institute for Biological Studies, priority 2008, published 2011)
